Source: article PMC6886185

Molecular target: eIF4A1 (UniProt P60842)
Experiment: fluorescence anisotropy
Conditions: 20 mM Hepes/KOH pH 7.5, 100 (mM) KCl, 1 mM MgCl2, 1 mM AMP-PNP, 1 mM TCEP, 0.1% DMSO, +/-50 uM silvestrol (10 uM in Fig 4a legend), 60 min, 25 C; numeric Kd of …

Sequence of eIF4A1 (P60842 whole entry): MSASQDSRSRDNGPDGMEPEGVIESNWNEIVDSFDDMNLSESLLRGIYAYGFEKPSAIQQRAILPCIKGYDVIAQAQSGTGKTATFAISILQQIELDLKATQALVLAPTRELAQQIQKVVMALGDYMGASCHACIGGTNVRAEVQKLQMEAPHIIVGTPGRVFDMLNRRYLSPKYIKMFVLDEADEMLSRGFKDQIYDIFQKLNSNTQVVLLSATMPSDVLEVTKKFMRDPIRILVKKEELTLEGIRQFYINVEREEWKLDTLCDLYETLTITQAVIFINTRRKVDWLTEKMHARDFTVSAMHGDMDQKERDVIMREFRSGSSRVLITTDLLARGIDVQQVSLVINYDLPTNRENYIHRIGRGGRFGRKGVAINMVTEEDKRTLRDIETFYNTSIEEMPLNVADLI

Q: AGAGAGAGAGAGAGAGAGAG [(AG)10 ssRNA] was tested. Which Kd did it give?
A: Its Kd is 0.0033 mM.
